According to patent US20250313612A1:

What was measured:
[1] = target: RSV F protein of subtype A (strain A2) on recombinant mKate-RSV (Respiratory syncytial virus subtype A (strain A2)) (UniProt P03420); assay: cell-based or functional assay
[2] = target: human metapneumovirus (HMPV) F protein on GFP-expressing hMPV (NL/1/00, A1 sublineage) (human metapneumovirus); assay: cell-based or functional assay

Sequence of RSV F protein of subtype A (strain A2) on recombinant mKate-RSV (Respiratory syncytial virus subtype A (strain A2)) (P03420 26-574): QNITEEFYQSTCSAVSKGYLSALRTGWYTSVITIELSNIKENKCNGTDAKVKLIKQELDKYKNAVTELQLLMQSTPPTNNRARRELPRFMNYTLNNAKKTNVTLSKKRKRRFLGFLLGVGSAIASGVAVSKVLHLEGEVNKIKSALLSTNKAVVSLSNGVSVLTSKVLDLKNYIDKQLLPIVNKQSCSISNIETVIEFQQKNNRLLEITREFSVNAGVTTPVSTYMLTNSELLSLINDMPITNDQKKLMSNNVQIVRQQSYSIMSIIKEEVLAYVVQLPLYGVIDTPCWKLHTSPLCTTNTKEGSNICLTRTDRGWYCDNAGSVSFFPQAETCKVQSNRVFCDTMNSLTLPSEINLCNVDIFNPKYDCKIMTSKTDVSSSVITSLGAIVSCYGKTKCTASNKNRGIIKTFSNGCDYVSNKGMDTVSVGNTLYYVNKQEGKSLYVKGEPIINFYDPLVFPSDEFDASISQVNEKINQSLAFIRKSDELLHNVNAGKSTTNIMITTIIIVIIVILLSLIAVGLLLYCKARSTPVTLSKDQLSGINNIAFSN

MPE8 (antibody) was tested, and the RSV-A2 IC50 [1] was 0.04 µg/mL and the HMPV-A1 IC50 [2] was 0.07 µg/mL.
